Test: soluble on expression in E. coli; label from the status in PepcDB or PDB records

Soluble on expression in E. coli, not soluble:
MGSDKIHHHHHHMQLTVWTYEGPPHVGAMRVATGMEGLHYVLHAPQGDTYADLLFTMIERRDRRPPVTYTTFAARDLGKDTAELFKTAAQNAYDRFKPQAMIVGASCTGSLIQDDPGGLAKALALPIPVVAIDLPAYQRKENWGAAETFYQLVRAIAGPKAPPPGSKRPERPAGKRPSCNLLGPTALGFRHRDDIIELTTLLGKLGIDVNVTAPMGATPADLARLGEADFNVVMYPETASQAASWLHRMFHQPFTKIVPIGVSATREFIEEVAKLADVDPTAVLKSYSSRLPWYSHSVDSTYLTGKRVFIFGDATHVVAAARMASDEMGFKVVGLGTYSREFGREIREAAKLYDVEPLITDDYLEVEAKVAELHPELVLGTQMERHIAKRLGVPCAVISAPVHVQDFPARYAPQMGFEGANVIFDTWVHPLMMGLEEHLLTMFRDDFEFKDGATPSHLGVGHAPAPAPAVADSAAVEVLDATTATTTETTTAVWAADAEKELRKIPFFVRGKARRNTERFANENGVATITVETLYDAKAHFSR
MGSDKIHHHHHHMQNGYYQATGGMVTQFNKLDVITNNLANINTSGYKRDDVVIADFKRIFKETQDELPIENHTRDASRFVNTTIDGIPQVSQEYTDFSLGSLKATNNPLDLAMTREDAFYLVQTKDGEVRLTKDGNFQLDDEGYLVNKQGYKVLSSDYFNNPQNAGIRIPNGAVQISVDKNGSIEVDGAQNARLFVAQVDDIRALQKDGDNVYKIDDLTRIRDLKNSNAIRQGFSQGSNVNPVTEMVGLIEANRMVEMYQKVMTAHMDDLNQEAINKLAAVK
MGSDKIHHHHHHMQNTSYIALSRQAALWRQMEVVANNMANANTPAFKGEEMMFREFLVPTRSSERAIGGKLAFVQDVGVLRDTREGPLTKTDNPLDFALHGDGYFQIETEAGMRYARNGHFRLDQTGMLVNSQGYAVMDDRDQPIVFAPNETRVEVASDGTVSTENGRVARMKVVKFENDQLLRKAGDSLFETTQDPEAVQSPNVAQGMMEESNVQPVLEMTRMTQILREYQGVQKMLDAEHERQLKAIQTLGSSKTN
MGSDKIHHHHHHMQPFSSYTVREVIKGGNSMELRSFGNTDIQVSPLGFGAGHIGSDDLSDQEASYILHQALDTGIRLFDTARGYGLSEKRLGQFLKQRRHDVVLSTKVGYDVPRTEDWTFQAVAGGIDQALLTMQTDFIDIVHLHSCSKEILAQDDVIEALERAKQAGKVRLIAYSGDREDLDYAITTGRFDSFQTSVNLYDQRALMDSVPLIHQQQKGIIAKRPIANAPWRFASRPVGQYVEPYWERAQQLDFPLEEASWLETALRFTVFEPGVTSAIIGTANPEHLVQNIRLLEKGALPAERVADLKRRFQEQDENWLQQT
MGSDKIHHHHHHMQPSNSWVCLSALEKQVVAATASLDNRGLAYADGFFTTMGVINGQILWAEYHHQRLISHAKALQLDLDSWSLLSTLQVHAQQHRQGMLKLIITRAAQDIRGYGYTPSECGSACESWLKSLAMTVSTAEQLSLNDECSIPVQPVSTAVCLSSQIACLPPSIAGLKTLNRLDNVLASAELQGIKTRVLASNGEGDISEGLLRDMTGRWVEGTMSNVFYQLSDSRLVDSPSSEMINIPNNKSNTNYLTQGQWYTPSMAQSGVAGVMRQVIIDELSTTKYPVVVRSLQDKDLPQLQQLFFCNALRGIMPMASLTLLSGEMVGF
MGSDKIHHHHHHMQRRVPLSPDAAHCSSCMLGHVCVPVGMPANEVEKLDELVKERVRVERGKSLYELDDPLDAVYGVRYGSLKTQLEDSSGQLQITGFHLPGEIVGLDGMIESKHVSSAVALEDSEVCVIRLPEIDRVSTQLPSLQQQFRRLMSREITRSHQMLATVGAMRSEQRLAAFLLNLSQRYAALGYSSTEFVLRMSREEIGNYLGLTLETVSRLFSRFGREGLIRINQREVRLIDLPGLKQLIGQESC
MGSDKIHHHHHHMQTLKRGFAVAALLFSPLTMAQDINAQLTTWFSQRLAGFSDEVVVTLRSSPNLLPSCEQPAFSMTGSAKLWGNVNVVARCANEKRYLQVNVQATGNYVAVAAPIARGGKLTPANVTLKRGRLDQLPPRTVLDIRQIQDAVSLRDLAPGQPVQLTMIRQAWRVKAGQRVQVIANGEGFSVNAEGQAMNNAAVAQNARVRMTSGQIVSGTVDSDGNILINL
MGSDKIHHHHHHMRDIHILHDLIKKQCPQIHQKRLNSLMVATESLLDGNQLSLTQLGRNITGSVAAKHNIKRIDRLLGNYHLAQDKITIYQWHARYLCGANPMPIILVDWSDVREQLRIMTLRASISVQGRSVTLYERTFLFEDYNAPRSHNAFLAELANVLPQGCCPLIVTDAGYRNTWFREVERYGWFWLGRVRGDVSFMHHGQTTWHSNKSLYSKANSTAKYIGNVQLARKSPLSCHLHLF
MGSDKIHHHHHHMREAVMCRFVAYLGRPTLLENVLVRPKNSIIMQSLHARETKYRTNGDGFGLGWYSPEVSSDPALFTSVYPAWNDRNLLHLTAKIQSPCFFAHVRSASAGGVTNYNCHPFIYGDWMLMHNGEINDFIDVKRHIRHLLDDDIYHWVKGQTDSEHLFGLFLQLAKGRDITQLSVAADVLQETINKILEVIGQFGHSGPSYFNICLTNGKKIIATRYCSHEKKKPLTLHYLIGYVLSTQGLWIKEEGNPAYVVVSSERLNDLDEGWEDVPPQHMILIDENKNIQLRPLQTLG
MGSDKIHHHHHHMRENSDVLANSGFRQSVEVQIKDKQSYKRLNMTLVGQQHPDYLILELSRQYCWQDILPMLATEKNVAIKTVSPKGEQVTGVVDILHITQYPQKLLFVSYPRNASVEILRSSPRVGVNCDARLQLQLKDKLGEPLTGKIVDISNKGIAFNYFGTSPVNIEDSRGLEAEVRVKTDDETILLQQLITRSIRSVGPQLWQLGLSYKEKPNNLQDLVSKLFLHSTPVRELLSDNDPGWDASDNTLQGESESVQFSTN
MGSDKIHHHHHHMRFMFLHPRLSLEGDPLGLMQLSASLKQRGHIVGLTLLTEDYIEAIRSFQPDMLGVSLMSSDAVMMHQVLNKVRMVFPDLFIIVGGPHPTFDPSCLMVLPVNAICVGEGDEALVEALEQYGREGHVEGIRNVGTVTTPVTLRPLVSDLDDLPFIDRDIVYAKNHIVRDFPLKTFAASRGCHFKCTYCFNHAYNAMYAGLGHVVRRRSVDHLIAEMRDVIARYPTSYIKISDDSFTYRVDSWLEEFAEKYPRLIGLPFYCLLRADVVTRDMVRLLREAGCRSVCMSIEAGAETVRRDVLNRRVSNEKIIESFDLFNEAGIAIYTNSMLAMPRATLADDIATLDLNIRCRPTLGHFTIMAPFPGTRIHDMCEKDGILPERCGGDGDIPTSTGELSKLTTYTDEEKNIQKNIVLLGPLVIRFPVLRGVFLRCLAKLPSNNILFKCIYTVTKNLLFKRIVPVRMSPLLMLRIAIAQVKAARTQVG
MGSDKIHHHHHHMRFPEFSGEWKKYFIRDIAEVTKGAGISKEQRSLFGTPCILYGELYTTYKSEVINDVQSKTDIDAKNLVRSKENDVIIPSSGETAIDISTARCVPYDDVLLGGDLNIIRLYQNDGRFLSYQLNGVRKLDIARVAQGSSVIHLYGESIKSLSVSLPALKEQQKIVSLLSLIDERIATQNKIIEEYKKLKNALAELFFAKSIEYTSIGEMCDVVMGQSPSSVAYNYTKNGLPLIQGNLDIFEGVTSPRMWTSDITKQCDIGDIILTVRAPVGDVAKSNMIACVGRGVCAIKVKESGCSEYVYQYLLYFKAKWGSIEQGSTFSAISRNDILNINIPVITKRLIVASHLLALFDSEISIEALNLNVYTKQKQYLLTKMFI
MGSDKIHHHHHHMRGDMLKRELQAYAKEIGIDEFRVTTADPFLVMKQRLMEQQEKGYASGFEEPDLERRTTPALLLEDAVSIIAIAVAYPSKLKDAPRGKEGERRGIFGRSSWGLDYHQALKQRLTLLEEKIQELSPGARSRSMVDTGELVDRAVAERAGIGFSGKNCSIISEEHGSYLYLGELITDQYLPPDESVEELCGSCNKCLDACPTDALIEPGVIDAKRCISFITQTKTLIPEHFRYALGNRLYGCDTCQQVCPYNRKKNATQHSELQPDPEQVKPLLIPLLSLSNREFKSRFGSLSGAWRGKKPIQRNAVCALVHYQDRTALDALRLMAETDQREDMRALAIWAVGRIAGQEAEDYIQKRLLTDSAEDVQVEGNRLLEEWGNGHAI
MGSDKIHHHHHHMRGEKNELLSWINNFVEVNNKAIDNSFEKFKSEPSNQYNLPFKNVSWYTLRKTLADNVEESKKARGCLYAVLDYNESELKELGLILNSNLHSIKKIANKIMQNAGIEFQFRFEAIMRLLLDKKNNLMLLNIPDLKRIKICLENFLSLRTTFRELVKQLLNDYNSNKESIKSENIKLGDYLNKAFSDIVLSMDKNPINLEKEIRNIIVI
MGSDKIHHHHHHMRGYFRADWTERVELSEHDIGELRFSLKNRLGEALLLTSQEDMLRYCRDWHGDVTSSAVAVIRPRSTKEVSDTVIACAELGLAIIPQGGNTGLVLGGIPDAPKHQVVLSLERMNAIRTIDSDDFSAVVEAGCILSEFKDAVQDKGMFFPLSLGAQGSCRIGGNVSTNAGGINVLRYGMTRELVLGLEVVLPDGTIWNGLSTLRKDNRGIDLKQLFIGAEGTLGIITAVAVKLYPNPEHVETALLGLNSLDDAIKLYRRARRECCDLMSAFEFMPPVAFTLAIEAIPDLKMPIAGDYPAYVLMEISGSGLVDTADLMGRFLEGVMEDGLVLDGVIASSRAQAQSLWLFREGMNEGQALRGSHMRTDISVPLSKLAAFVAEAEAELAEKLPECLAVSYGHVGDGNVHLNVLPPNGATLEEREAFIYKSKTLVNEVLDRYVGSISAEHGIGRLKRSDFESRLSDVQRRMITGLKNAFDPDLRMNPGCQITLQPDS
MGSDKIHHHHHHMRIGCVLARKGKMMMNGELAGFTIPRLGMGTMALAIEGRPDRDTAIRTIHAGLDAGVRYLDTAWSYYLPSEPGTGTAKDLGYGEKLVRDALASWNGPRDEVLVATKTGYRRTMEIPAFVAPVSDSPESDTQGRDSEGCSRRPGGERQHLQAAGSQYGWMADSRPETMIRDAKESALHLGVDTLDLLYSHGPDPEVAYEDQVGALKQLLNEGVIRYAGISRVDNAQIDIAREILGDKLIAVQNQFSPSHPDPEHTMEHCAELGLAFVCWSPLGGFLDAFDQRAYDPFRTVAGNHGCSYQRVVLAWELSRYERLFTIPSARNPQEINDSFAATELTLTQDELAMLNASVDARRG
MGSDKIHHHHHHMRIGVIGLGRIGTIHAENLKMIDDAILYAISDVREDRLREMKEKLGVEKAYKDPHELIEDPNVDAVLVCSSTNTHSELVIACAKAKKHVFCEKPLSLNLADVDRMIEETKKADVILFTGFNRRFDRNFKKLKEAVENGTIGKPHVLRITSRDPAPPPLDYIRVSGGIFLDMTIHDFDMARYIMGEEVEEVFADGSVLVDEEIGKAGDVDTAVVVLRFKSGALGVIDNSRRAVYGYDQRIEVFGSKGRIFADNVRETTVVLTDEQGDRGSRYLYFFLERYRDSYLEELKTFIKNVKSGEPPAVSGEDGKMALLLGYAAKKSLEEKRSVKLEEVIG
MGSDKIHHHHHHMRKDVLEGVLLHIMNEIHPNFAALAKQYNCDYRTVKRYYEAGLTGDLDKLRERKPSVPPLLHGFEEIIRDKLELNCSAASIFYFLGKKDYKGSYTTIKRYCRKYREEKVQKATIRIETTPGLSAQVDWKENVKMVSRDGEVFYFNIFLYILGYSRMKYLELTFDRTQPTVFQCLVNAFEYCGNGIPQEIWFDNMKTVVDRSKSQFTQTVFNEKFRQFAKDAGFHPIACRPFRPQTKGKVEALARTVERLMVFNYEFTDVQELKQIIYELMQDLNGSVSQAIHNKPTVLLKEELPILAPIHRLELLSYVSRNKRLLRKVSMESMVQYQNAKYSVPVKYIGKEVTLDIRRDNLFVWYGDKCIRTHPISEKALNYQREDSLEILRSDVFKYLEDEELERFVDDNLHAYDDL

From the DeepSol protein solubility set
